Experimental data from patent US20160264649A1.

How the values were obtained:
Test in all cases: cell-based or functional assay
[1] = biological target: HIV-1 Env of isolate VLGCB3 (HIV-1)
[2] = biological target: HIV-1 Env of isolate MG RM-C-023 (HIV-1)
[3] = biological target: HIV-1 Env of isolate MGRM-Chronic-B-023 (HIV-1)
[4] = biological target: HIV-1 Env of isolate MG RM-C-020 (HIV-1)
[5] = biological target: HIV-1 Env of isolate 98IN022 (HIV-1)
[6] = biological target: HIV-1 Env of isolate QH0692.42 (HIV-1)
[7] = biological target: HIV-1 Env of isolate MGRM-Chronic-B-003 (HIV-1)
[8] = biological target: HIV-1 Env of isolate MG RM-C-026 (HIV-1)
[9] = biological target: HIV-1 Env of isolate MGRM-Chronic-B-018 (HIV-1)
[10] = biological target: HIV-1 Env of isolate JRFL (HIV-1)
[11] = biological target: HIV-1 Env of isolate MGRM-Chronic-B-010 (HIV-1)
[12] = biological target: HIV-1 Env of isolate MGRM-Chronic-B-020 (HIV-1)
[13] = biological target: HIV-1 Env of isolate TRO.11 (HIV-1)
[14] = biological target: HIV-1 Env of isolate 6535.3 (HIV-1)
[15] = biological target: HIV-1 Env of isolate APV_13 (HIV-1)
[16] = biological target: HIV-1 Env of isolate MGRM-Chronic-B-011 (HIV-1)
[17] = biological target: HIV-1 Env of isolate MGRM-Chronic-B-008 (HIV-1)
[18] = biological target: HIV-1 Env of isolate MGRM-Chronic-B-002 (HIV-1)
[19] = biological target: HIV-1 Env of isolate MGRM-Chronic-B-001 (HIV-1)
[20] = biological target: HIV-1 Env of isolate 93TH305 (HIV-1)
[21] = biological target: HIV-1 Env of isolate PVO.4 (HIV-1)
[22] = biological target: HIV-1 Env of isolate SF162 (HIV-1) (UniProt P19550)
[23] = biological target: HIV-1 Env of isolate MG RM-C-024 (HIV-1)
[24] = biological target: HIV-1 Env of isolate 92 BR 020 (HIV-1)
[25] = biological target: HIV-1 Env of isolate MG RM-C-028 (HIV-1)
[26] = biological target: HIV-1 Env of isolate MG RM-C-025 (HIV-1)
[27] = biological target: HIV-1 Env of isolate APV_17 (HIV-1)
[28] = biological target: HIV-1 Env of isolate SC422661.8 (HIV-1)
[29] = biological target: HIV-1 Env of isolate 93MW959 (HIV-1)
[30] = biological target: HIV-1 Env of isolate MG RM-C-022 (HIV-1)
[31] = biological target: HIV-1 Env of isolate THR0.18 (HIV-1)
[32] = biological target: HIV-1 Env of isolate JRCSF (HIV-1) (UniProt P20871)
[33] = biological target: HIV-1 Env of isolate TRJ04551.58 (HIV-1)
[34] = biological target: HIV-1 Env of isolate MG RM-C-027 (HIV-1)
[35] = biological target: HIV-1 Env of isolate CAAN.A2 (HIV-1)
[36] = biological target: HIV-1 Env of isolate MGRM-Chronic-B-012 (HIV-1)
[37] = biological target: HIV-1 Env of isolate NL43 (HIV-1)
[38] = biological target: HIV-1 Env of isolate MGRM-Chronic-B-024 (HIV-1)
[39] = biological target: HIV-1 Env of isolate MGRM-Chronic-B-017 (HIV-1)
[40] = biological target: HIV-1 Env of isolate 97ZA012 (HIV-1)
[41] = biological target: HIV-1 Env of isolate 93IN905 (HIV-1)
[42] = biological target: HIV-1 Env of isolate MGRM-Chronic-B-004 (HIV-1)
[43] = biological target: HIV-1 Env of isolate APV_6 (HIV-1)

PGT-121 monoclonal antibody (4838_L06; 4873_E03)
neutralization IC50 [1]: 0.005 µg/mL
neutralization IC50 [2]: 0.017 µg/mL
neutralization IC50 [3]: 0.005 µg/mL
neutralization IC50 [4]: > 50 µg/mL
neutralization IC50 [5]: 0.007 µg/mL
neutralization IC50 [6]: 0.823 µg/mL
neutralization IC50 [7]: 0.011 µg/mL
neutralization IC50 [8]: 0.002 µg/mL
neutralization IC50 [9]: > 50 µg/mL
neutralization IC50 [10]: 0.021 µg/mL
neutralization IC50 [11]: 0.014 µg/mL
neutralization IC50 [12]: 0.004 µg/mL
neutralization IC50 [13]: 0.008 µg/mL
neutralization IC50 [14]: 0.005 µg/mL
neutralization IC50 [15]: 0.251 µg/mL
neutralization IC50 [16]: > 50 µg/mL
neutralization IC50 [17]: 0.007 µg/mL
neutralization IC50 [18]: 0.386 µg/mL
neutralization IC50 [19]: 0.102 µg/mL
neutralization IC50 [20]: 0.007 µg/mL
neutralization IC50 [21]: 0.137 µg/mL
neutralization IC50 [22]: 0.005 µg/mL
neutralization IC50 [23]: 0.052 µg/mL
neutralization IC50 [24]: 0.014 µg/mL
neutralization IC50 [25]: 0.472 µg/mL
neutralization IC50 [26]: 46.8 µg/mL
neutralization IC50 [27]: 0.066 µg/mL
neutralization IC50 [28]: 0.098 µg/mL
neutralization IC50 [29]: 0.013 µg/mL
neutralization IC50 [30]: 0.015 µg/mL
neutralization IC50 [31]: > 50 µg/mL
neutralization IC50 [32]: 0.027 µg/mL
neutralization IC50 [33]: 7.09 µg/mL
neutralization IC50 [34]: 0.011 µg/mL
neutralization IC50 [35]: 0.011 µg/mL
neutralization IC50 [36]: 0.036 µg/mL
neutralization IC50 [37]: > 50 µg/mL
neutralization IC50 [38]: 0.195 µg/mL
neutralization IC50 [39]: > 50 µg/mL
neutralization IC50 [40]: 0.002 µg/mL
neutralization IC50 [41]: 0.005 µg/mL
neutralization IC50 [42]: 0.009 µg/mL

PGT-122 monoclonal antibody (4877_D15)
neutralization IC50 [1]: 0.008 µg/mL
neutralization IC50 [2]: 0.027 µg/mL
neutralization IC50 [3]: 0.01 µg/mL
neutralization IC50 [4]: 14 µg/mL
neutralization IC50 [5]: 0.032 µg/mL
neutralization IC50 [6]: 0.493 µg/mL
neutralization IC50 [7]: 0.008 µg/mL
neutralization IC50 [8]: 0.006 µg/mL
neutralization IC50 [9]: > 50 µg/mL
neutralization IC50 [10]: 0.026 µg/mL
neutralization IC50 [11]: 0.018 µg/mL
neutralization IC50 [12]: 0.005 µg/mL
neutralization IC50 [13]: 0.011 µg/mL
neutralization IC50 [43]: 0.019 µg/mL
neutralization IC50 [14]: 0.006 µg/mL
neutralization IC50 [15]: 0.778 µg/mL
neutralization IC50 [16]: > 50 µg/mL
neutralization IC50 [17]: 0.017 µg/mL
neutralization IC50 [18]: 1.8 µg/mL
neutralization IC50 [19]: 0.138 µg/mL
neutralization IC50 [20]: 0.013 µg/mL
neutralization IC50 [21]: 0.689 µg/mL
neutralization IC50 [22]: 0.009 µg/mL
neutralization IC50 [23]: 0.102 µg/mL
neutralization IC50 [24]: 0.021 µg/mL
neutralization IC50 [25]: 2.22 µg/mL
neutralization IC50 [26]: 8.69 µg/mL
neutralization IC50 [27]: 0.25 µg/mL
neutralization IC50 [28]: 0.103 µg/mL
neutralization IC50 [29]: 0.016 µg/mL
neutralization IC50 [30]: 0.012 µg/mL
neutralization IC50 [31]: > 50 µg/mL
neutralization IC50 [32]: 0.057 µg/mL
neutralization IC50 [33]: > 50 µg/mL
neutralization IC50 [34]: 0.039 µg/mL
neutralization IC50 [35]: 0.011 µg/mL
neutralization IC50 [36]: 0.066 µg/mL
neutralization IC50 [37]: > 50 µg/mL
neutralization IC50 [38]: 2.31 µg/mL
neutralization IC50 [39]: 5.66 µg/mL
neutralization IC50 [40]: 0.004 µg/mL
neutralization IC50 [41]: 0.013 µg/mL
neutralization IC50 [42]: 0.008 µg/mL
